Results on 12 molecules are retold here after patent US7053177B1, “Random peptides that bind to gastro-intestinal tract (GIT) transport receptors and related methods” (Cytogen Corporation, priority 1997, dated 2006).

Ends that are not written are not given here. * marks the point of attachment. Dansyl = CN(C)c1cccc2c(S(=O)(=O)*)cccc12

For data set [1], the target named is BSA (Bos taurus, UniProt P02769). Description: Receptor ELISA of phage on BSA (background control protein). In kind it is binding. On the procedure:
96 well plates were coated overnight with GIT receptor, BSA and, optionally, IDE (insulin degrading enzyme, an irrelevant His-fusion protein)or hTF. The plates were blocked for one hour with 0.5% BSA-PBS. After clarification, the amplified phage were diluted 1:100 in 1% BSA plus 0.05% Tween 20 in PBS and added to the plates. Following incubation of the plates on a rotator for 1 to 2 hours, the plates were washed 5 times with 1% BSA plus 0.05% Tween 20 in PBS. Dilute anti-M13-HRP conjugate (anti-M13 antibody linked to horse radish peroxidase (HRP)) was added to all the wells and the plate was incubated for one hour on a rotator. After the plates were washed 5 times, as described above, TMB substrate was added to the wells. The plates were read at 650 nm absorbance.
On the technique in general: An ELISA detects its analyte on a solid surface through an enzyme-linked reagent.

The test system of data set [2] is P100 membrane fraction of Caco-2 cells. As to the kind of experiment: Binding of dansylated peptides to P100 fractions (peptide/particle correlation). As to the method: Caco-2 cell membrane (P100) and cytosolic (S100) fractions were prepared using a modification of the method described in Kinsella, B. T., O'Mahony, D. J. and G. A. FitzGerald, 1994, J. Biol. Chem. 269(47): 29914–29919. Confluent Caco-2 cell monolayers (grown in 75 cm^2 flasks for up to 1 week at 37° C. and 5% CO2) were washed twice in Dulbecco's PBS (DPBS) and the cells were harvested by centrifugation at 1000 rpm after treatment with 10 mM EDTA-DPBS. The cells were washed 3 times in DPBS and the final cell pellet was resuspended in 3 volumes of ice cold HED buffer (20 mM HEPES (pH 7.67), 1 mM EGTA, 0.5 mM dithiothreitol, 1 mM phenylmethylsulphonyl fluoride (PMSF)). The cells were allowed to swell for 5 min on ice prior to homogenization for 30 sec. The homogenates were centrifuged at 40,000 rpm for 45 min at 4° C. The supernatant (S100) was removed and the pellet (P100) was resuspended in HEDG buffer (20 mM HEPES (pH 7.67), 1 mM EGTA, 0.5 mM dithiothreitol, 100 mM NaCl, 10% glycerol, 1 mM PMSF). Protein concentrations were determined using the Bradford assay (Bradford, M. M., 1976, Anal. Biochem. 72: 248–254).
Binding of peptide and/or peptide-coated PLGA particles to membrane (P100) and cytosolic (S100) fractions was assessed by detection of the dansyl moiety incorporated in the peptide. Costar ninety six well ELISA plates were coated with S100 and P100 fractions (100 μg/ml in 0.05 M NaHCO3) overnight at 4° C. The plates were blocked with 0.5% bovine serum albumin in DPBS for 1 h at room temperature and washed 3 times in 1% BSA-DPBS. Peptide-coated particles or peptides were dispersed in the same buffer and added to the plates at concentrations in the range 0.0325–0.5 mg/well. […] The plates were incubated for 1 h at room temperature. The wells were washed 3 times in 1% BSA-DPBS and 100 μl of goat anti-mouse IgGλ:HRP antibody (Southern Biotechnology 1060-05; 1:10,000) was added per well. The plates were incubated for 1 h at room temperature. After washing 3 times in 1% BSA-DPBS 100 μl of TMB substrate (3,3′,5′,5-tetramethylbenzidine; Microwell Peroxidase Substrate System (Kirkegaard and Perry Laboratories 50-76-00)) was added and the optical density was measured at 650 nm at various time intervals.
Binding of dansylated peptides to P100 fractions was assessed to determine if peptide binding was predictive of peptide-coated particle binding.

In data set [3] the test system is rat gastro-intestinal tract (closed loop). Description: Transport of preselected phage libraries in rat closed loop, detected by oligonucleotide hybridization/autoradiography. Conditions: in words; for Presence in the intestinal samples fractions / Transport from the GIT closed loop model into the portal circulation: D2H pool. On the procedure:
Four preselected phage libraries, GI-D2H, GI-hSI, GI-HPT1 and GI-hPEPT1, were constructed by pooling phage previously selected by screening random phage display libraries D38 and DC43 using the HPT1, HPEPT1, D2H and hSI receptor or binding sites located in the GIT.
In particular, phages selected in vitro to each receptor or binding site located in the GIT were amplified in E. coli, PEG-precipitated, resuspended in TBS and the titer of each phage sample was determined by plaquing in E. coli as described above. […] Using the in situ loop model described above, 0.5 ml of preselected phage library solution was injected into the tied-off portion of the duodenum/jejunum. Blood was collected into heparinized tubes from the portal vein at 0, 15, 30, 45 and 60 minutes. A blood sample was taken from the systemic circulation at the end of the experiment. Similarly, the portion of the duodenum/jejunum used for phage injection was taken at the end of the experiment.
Thirty microliters of the collected portal blood (neat and 10^−2, 10^−1, 10^−6 dilutions) was added to 30 μl E. coli K91Kan cells (overnight culture) and incubated at 37° C. for 10 min. Subsequently, 3 ml of top agarose was added and the samples were plated for plaques. One hundred microliters of the collected portal blood was added to 100 μl of E. coli K91Kan. Five milliliters of LB medium was then added and the samples were incubated at 37° C. overnight in a rotating microbial incubator. The E. coli was removed by centrifugation and the amplified phage supernatant samples were either titered directly or were PEG-precipitated, resuspended in TBS and titered. Following titration of the amplified phage, samples containing phage from each set of animals were combined, adjusting the titer of each sample to the same titer, and were plated for plaques on LB agar lates (22 cm^2 square plates). Either 12,000 or 24,000 phage were lated for plaques.
Thirty microliters of the collected systemic blood (neat and 10^−2, 10^−1, 10^−6 dilutions) was added to E. coli K91Kan cells, incubated at 37° C. for 10 min. Three ml of top agarose was then added and the samples were plated for plaques. One hundred microliters of the collected systemic blood was added to 100 μl of E. coli K91Kan, incubated at 37° C. for 10 min. Five milliliters of LB medium was then added and the samples were incubated at 37° C. overnight in a rotating microbial incubator. The E. coli was removed by centrifugation and the amplified phage supernatant samples were either titered directly or were PEG-precipitated, resuspended in TBS and titered. Following titration of the amplified phage, samples containing phage from each set of animals were combined, adjusting the titer of each sample to the same titer, and were plated for plaques on LB agar plates (22 cm^2 square plates). Either 12,000 or 24,000 phage were plated for plaques.
The intestinal tissue portion used in each closed loop was excised. […] Alternatively, the tissue (in PBS supplemented with protease inhibitors) was homogenized in an Ultra Thorex homogenizer, washed 3 times in PBS containing protease inhibitors and resuspended in PBS containing protease inhibitors (Int-G samples). In each case, serial dilutions (neat and 10^−2, 10^−4, 10^−6 dilutions) of the tissue homogenate was titered in E. coli.
The phage amplified from the portal blood, systemic blood and intestinal tissue was plated for plaques. […] The filters were air-dried, and the DNA was cross-linked to the filter (UV crosslinking: 2 min, high setting). The filters were incubated in pre-hybridization buffer (6×SSC, 5× Denhardt's solution, 0.1% SDS, […] yeast tRNA) at 40° C.–45° C. for at least 60 min.
Synthetic oligonucleotides, (22-mers), complimentary to regions coding for the receptor or binding sites used to create the preselected phage library, were synthesized (see Table 14 below).

Data set [4] concerns P100 membrane fraction of Caco-2 cells. As to the kind of experiment: Dansylated peptide ELISA: relative binding of PAX2 and HAX42 peptides to P100 fractions (ratio to ZElan021). Particulars: PAX2 peptides, first column, ratio to ZElan021 = 1.00. A digest of the protocol:
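Plates coated overnight at 4 °C with Caco-2 P100 membrane fraction (normally 100 μg/ml, pH 9.6) and blocked with 2% Marvel/PBS were incubated with dansylated peptides. Binding was detected with anti-mouse λ-HRP and TMB, read at 650 nm, and expressed relative to ZElan021.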

Data set [5] has as its target T1, recombinant hPEPT1 receptor domain (human PEPT1, amino acid residues 391-571), His-tag fusion protein (human) (UniProt P46059).
T1 sequence: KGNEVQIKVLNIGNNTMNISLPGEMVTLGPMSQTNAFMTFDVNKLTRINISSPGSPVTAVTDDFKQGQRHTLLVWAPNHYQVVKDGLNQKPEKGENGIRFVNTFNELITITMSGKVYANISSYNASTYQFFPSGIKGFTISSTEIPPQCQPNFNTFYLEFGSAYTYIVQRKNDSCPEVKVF
Description: phage ELISA, OD on hPEPT1 over OD on BSA.

The target in data set [6] is bovine serum albumin (bovine) (UniProt P02769). As to the kind of experiment: phage ELISA on coated BSA.
Data set [7] has as its target T1, recombinant hPEPT1 receptor domain (human PEPT1, amino acid residues 391-571), His-tag fusion protein (human). As to the kind of experiment: phage ELISA on coated hPEPT1.
Data set [8] addresses T2, recombinant D2H receptor domain (human D2H transporter, amino acid residues 387-685), His-tag fusion protein (human) (UniProt Q07837).
T2 sequence: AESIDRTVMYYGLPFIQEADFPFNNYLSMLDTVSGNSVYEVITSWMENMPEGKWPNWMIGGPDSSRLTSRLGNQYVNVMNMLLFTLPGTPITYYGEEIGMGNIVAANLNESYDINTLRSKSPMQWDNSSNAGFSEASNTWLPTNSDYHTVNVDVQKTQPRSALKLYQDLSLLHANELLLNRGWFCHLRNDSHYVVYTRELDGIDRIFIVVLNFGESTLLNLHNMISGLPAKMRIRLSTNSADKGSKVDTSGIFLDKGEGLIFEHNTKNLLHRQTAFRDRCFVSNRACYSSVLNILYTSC
As to the kind of experiment: phage ELISA on coated D2H.

In data set [9] the target is T2, recombinant D2H receptor domain (human D2H transporter, amino acid residues 387-685), His-tag fusion protein (human). As to the kind of experiment: phage ELISA, OD on D2H over OD on BSA.
The mark [10] stands for this setting: Table 1, phage panned on hSI, 650 nm.
Where [11] appears, read: Table 3, two pans on D2H, third on Caco-2 snapwells.

Sequence of bovine serum albumin (bovine) (P02769 25-607 limits assumed): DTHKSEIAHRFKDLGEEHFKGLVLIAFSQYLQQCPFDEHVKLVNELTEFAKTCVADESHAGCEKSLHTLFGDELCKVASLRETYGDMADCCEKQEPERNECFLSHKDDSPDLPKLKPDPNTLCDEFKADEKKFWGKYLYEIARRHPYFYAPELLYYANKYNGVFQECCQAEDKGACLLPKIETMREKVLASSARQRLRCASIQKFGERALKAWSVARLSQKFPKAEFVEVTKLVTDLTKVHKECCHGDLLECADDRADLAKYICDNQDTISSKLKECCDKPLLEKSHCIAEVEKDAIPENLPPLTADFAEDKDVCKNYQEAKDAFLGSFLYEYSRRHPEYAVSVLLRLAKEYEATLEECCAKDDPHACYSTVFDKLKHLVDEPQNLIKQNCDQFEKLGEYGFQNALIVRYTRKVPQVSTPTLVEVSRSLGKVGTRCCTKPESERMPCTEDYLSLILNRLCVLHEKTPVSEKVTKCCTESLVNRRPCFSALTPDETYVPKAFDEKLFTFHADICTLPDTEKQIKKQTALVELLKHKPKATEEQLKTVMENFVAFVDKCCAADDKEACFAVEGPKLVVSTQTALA
Sequence of BSA (P02769 25-607): as the sequence (P02769 25-607 limits assumed) above

“RVGQCTDSDVRRPWARSCAHQGCGAGTRNSHGCITRPLRQASAH [SNi10]” gave a BSA in data set [1] (setting [10]) of 0.051 OD.
Turning to “SDHALGTNLRSDNAKEPGDYNCCGNGNSTGRKVFNRRRPSAIPT (not fully specified; cysteine pairing not given here) [HAX42]”, the Peptide/particle binding correlation entry in data set [2] (in words) is reported as “correlated well”. The “Presence in the portal or systemic circulation” value in [3] (HPT1 pool, PAX2 used at 4x concentration) is “found in the portal and systemic circulation”. In [1] (Table 5, phage panned on HPT-1), this molecule had a BSA of 0.071 OD.
Take “RYKHDIGCDAGVDKKSSSVRGGCGAHSSPPRAGRGPRGTMVSRL [DCX8]”: in [3], the “Presence in the intestinal samples fractions” value is “to a much lesser extent” and the “Transport from the GIT closed loop model into the portal circulation” value is reported as “transported”. Besides, the BSA in [1] (setting [11]) was determined as 0.063 OD.
With “H-K(Dansyl)STPPSREAYSRPYSVDSDSDTNAKHSSHNRRLRTRSRPNG-NH2 [ZElan018]”, the “Binding of dansylated peptide to P100 fraction” value in data set [2] (repeat assay, compared with scrambled PAX2 control) is on record as “indistinguishable from the scrambled PAX2 control”. Besides, the “Binding value at 20 μg/ml” value in data set [4] (20 μg/ml) was −0.33. For the same molecule, the “Binding value at 50 μg/ml” value in data set [4] (50 μg/ml) stood at 0.95.
“SPCGGSWGRFMQGGLFGGRTDGCGAHRNRTSASLEPPSSDY [SNi34]” gave a BSA in data set [1] (setting [10]) of 0.115 OD.
In the case of “SQGSKQCMQYRTGRLTVGSEYGCGMNPARHATPAYPARLLPRYR [DCX11]”, in data set [3], the “Presence in the intestinal samples fractions” value is “found” and the “Transport from the GIT closed loop model into the portal circulation” value is on record as “preferably transported”. In data set [1] (setting [11]), this molecule returned a BSA of 0.071 OD.

B1: phage 5PAX5 (peptide, not shown: large carriers)
peptide: RGSTGTAGGERSGVLNLHTRDNASGSGFKPWYPSNRGHK
modifications: also: displayed as N-terminal pIII fusion on M13 phage
In the case of B1, in data set [5], the PEPT1/BSA is 4. The OD in data set [6] came to 0.036 OD 650 nm; in [7], 0.15 OD 650 nm.

B2: phage DCX8 (peptide)
peptide: RYKHDIGCDAGVDKKSSSVRGGCGAHSSPPRAGRGPRGTMVSRL
Regarding B2, the OD was found to be 0.163 OD 650 nm in [8] and 0.063 OD 650 nm in [6]. The D2H/BSA in [9] turned out to be 3.

B3: phage PAX15 (peptide, not shown: large carriers)
peptide: SYCRVKGGGEGGHTDSNLARSGCGKVARTSRLQHINPRATPPSR
For the molecule B3, the PEPT1/BSA in data set [5] was 4. The OD in [6] was 0.079 OD 650 nm; in data set [7] it was 0.301 OD 650 nm.

B4: phage 5PAX3 (peptide, not shown: large carriers)
peptide: RPKNVADAYSSQDGAAAEETSHASNAARKSPKHKPLRRP
modifications: also: displayed as N-terminal pIII fusion on M13 phage
B4: the PEPT1/BSA in [5] was 4. The OD in [6] was determined as 0.04 OD 650 nm; in data set [7], 0.173 OD 650 nm.

B5: phage 5PAX7 (peptide, not shown: large carriers)
peptide: RWGWERSPSDYDSDMDLGARRYATRTHRAPPRVLKAPLP
modifications: also: displayed as N-terminal pIII fusion on M13 phage
As to B5, the PEPT1/BSA in [5] stood at 5. Besides, the figures for the OD in data set [6] and in data set [7] were 0.037 OD 650 nm and 0.171 OD 650 nm, respectively.

B6: phage PAX9 (peptide, not shown: large carriers)
peptide: RWPSVGYKGNGSDTIDVHSNDASTKRSLIYNHRRPLFP
Consider B6, for which the PEPT1/BSA in data set [5] was 4. The OD in [6] was determined as 0.079 OD 650 nm; in data set [7] it was 0.312 OD 650 nm.
